Data reported in article PMC12560246, “Calorimetric characterization of the stability and activity of trimethylamine‐N‐oxide (TMAO) demethylase from Methylocella silvestris BL2” (Protein Science : A Publication of the Protein Society, 2025).
“And” between values parts separate entries of the source, which are not always exact repeats. Identical values can stand only once.

Legend:
[1] = target: trimethylamine-N-oxide demethylase (Tdm) from Methylocella silvestris BL2 (Methylocella silvestris BL2); assay: SEC; analytical SEC, HiLoad 16/600 Superdex 200 pg, 50 mM TRIS pH 7.9, 150 mM NaCl, 0.5 mL/min; column calibrated with globular proteins; 0.5 mL of concentrated IMAC fractions injected
[2] = substrate: C[N+](C)(C)[O-]; assay: isothermal titration calorimetry, multiple injection, Michaelis-Menten fit; assay type: biochemical, Methylocella silvestris; conditions: 50 mM KPi pH 7.0, 25 °C, 100 nM Tdm, multiple injections of 600 μM TMAO
Excerpt: isothermal titration calorimetry, multiple injection, Michaelis-Menten fit on Tdm (trimethylamine-N-oxide demethylase)

trimethylamine-N-oxide demethylase (Tdm) from Methylocella silvestris BL2 (enzyme)
stoichiometry N [1]: 8 and 5

B1: Tdm (trimethylamine-N-oxide demethylase) (Methylocella silvestris BL2) (protein)
chain: MNVNAAAPKGSFDLDAPRRVQTLSAAGGGGVQFDLSAGDEAIITNLEGGQAGELLTASGEPLRLTPGSAPTDEAGVRAVAGDLAAAFLAARQGTERFLATPLFHAAAEPGETFRFKAEADMRCLLLAPGEPMAPDAQNPPTELRLDIFSSRPTGGAAPPSLAPVKLDLRVDAATARAYRVSAGDYIQIIDVDGRQCSDLVAFDARALAEGRELGVDPTVTRTLMGSATPGPGLHAKYFDQDMNPLFEIVRDTVGRHDTFMLACNAKYYDDMGYPGHANCTDNFNAALAPFGVAPRRGWPAINFFYNTFVAEDNTIGLDEPWSRPGDYVLLRALTDLVCASSSCADDIDPANGWMPTDIHVRVYDAAASFSKGIAHRMTADAAPRLTRESGFHSRTSALTRSFADYRGFWTPQCYASEGPIAEYWACRERAVLIDLSALRKFEITGPDAEILLQSAVTRNIRKLAVGQIVYTAICHEHGGMLDDGTVFRLGDNNFRLVCGEDYCGVFLRELAARQGLRAFVRSSTDQLHNVALQGPKSRDILREILVTPPHRASADELKWFRFTVGKIAGLPVLVSRTGYTGELGYEIWLHPGSAVAVWDALMAAGKPYGIAPFGFAALDMVRIEAGLIFAHHEFCDETDPFEAGIGFAVPAEKADPYVGSEALARRRASPIRRLAGLDVAGNEAVAHGDPVFAGRAQVGVVTSAMRSPVLGRTIALARLDAACASIGTDLEIGKLDGRQKRIAATVARFPHYDPEKARVRA
notes: GenBank version '.14' [sic]
Km [2]: 866 ± 72 µM | Vmax [2]: 18.5 µmol/min | kcat [2]: 15.48 ± 0.04 s⁻¹
